The labels stand for the following.
B1: unnamed (protein)
chain 1: QMQLVESGGGVVQPGRSLRLSCAASGFTFRTYGMHWVRQAPGKGLEWVAVIWYDGSNKHYADSVKGRFTITRDNSKNTLNLQMNSLRAEDTAVYYCARAPRYDDLYEAFDVWGQGTMVTVSS
chain 2: SYVLTQPPSVSVAPGQTARITCGGNNLGSKSVHWYQQKPGQAPVLVVYDDSDRPSWIPERFSGSNSGNTATLTISRGEAGDEADYYCQVWDSSSDHVVFGGGTKLTVL
B2: unnamed (protein)
chain 1: QMQLVESGGGVVQPGRSLRLSCAASGFTFRTYGMHWVRQAPGKGLEWVAVIWYDGSNKHYADSVKGRFTITRDNSKNTLNLQMNSLRAEDTAVYYCARAPRYDDRYEAFDVWGQGTMVTVSS
chain 2: SYVLTQPPSVSVAPGQTARITCGGNNLGSKSVHWYQQKPGQAPVLVVYDDSDRPSWIPERFSGSNSGNTATLTISRGEAGDEADYYCQVWDSSSDHVVFGGGTKLTVL
B3: unnamed (protein)
chain 1: QMQLVESGGGVVQPGRSLRLSCAASGFTFRTYGMHWVRQAPGKGLEWVAVIWYDGSNKHYADSVKGRFTITRDNSKNTLNLQMNSLRAEDTAVYYCARSPRYYDYWEAFDVWGQGTMVTVSS
chain 2: SYVLTQPPSVSVAPGQTARITCGGNNLGSKSVHWYQQKPGQAPVLVVYDDSDRPSWIPERFSGSNSGNTATLTISRGEAGDEADYYCQVWDSSSDHVVFGGGTKLTVL
B4: unnamed (protein)
chain 1: QMQLVESGGGVVQPGRSLRLSCAASGFTFRTYGMHWVRQAPGKGLEWVAVIWYDGSNKHYADSVKGRFTITRDNSKNTLNLQMNSLRAEDTAVYYCARAPRYDYYVEAFDVWGQGTMVTVSS
chain 2: SYVLTQPPSVSVAPGQTARITCGGNNLGSKSVHWYQQKPGQAPVLVVYDDSDRPSWIPERFSGSNSGNTATLTISRGEAGDEADYYCQVWDSSSDHVVFGGGTKLTVL
B5: unnamed (protein)
chain 1: QMQLVESGGGVVQPGRSLRLSCAASGFTFRTYGMHWVRQAPGKGLEWVAVIWYDGSNKHYADSVKGRFTITRDNSKNTLNLQMNSLRAEDTAVYYCARAPRYDEAYEAFDVWGQGTMVTVSS
chain 2: SYVLTQPPSVSVAPGQTARITCGGNNLGSKSVHWYQQKPGQAPVLVVYDDSDRPSWIPERFSGSNSGNTATLTISRGEAGDEADYYCQVWDSSSDHVVFGGGTKLTVL
B6: unnamed (protein)
chain 1: QMQLVESGGGVVQPGRSLRLSCAASGFTFRTYGMHWVRQAPGKGLEWVAVIWYDGSNKHYADSVKGRFTITRDNSKNTLNLQMNSLRAEDTAVYYCARSPRYDEYYEAFDVWGQGTMVTVSS
chain 2: SYVLTQPPSVSVAPGQTARITCGGNNLGSKSVHWYQQKPGQAPVLVVYDDSDRPSWIPERFSGSNSGNTATLTISRGEAGDEADYYCQVWDSSSDHVVFGGGTKLTVL
B7: unnamed (protein)
chain 1: QMQLVESGGGVVQPGRSLRLSCAASGFTFRTYGMHWVRQAPGKGLEWVAVIWYDGSNKHYADSVKGRFTITRDNSKNTLNLQMNSLRAEDTAVYYCARAPRYDDTYEAFDVWGQGTMVTVSS
chain 2: SYVLTQPPSVSVAPGQTARITCGGNNLGSKSVHWYQQKPGQAPVLVVYDDSDRPSWIPERFSGSNSGNTATLTISRGEAGDEADYYCQVWDSSSDHVVFGGGTKLTVL
B8: unnamed (protein)
chain 1: QMQLVESGGGVVQPGRSLRLSCAASGFTFRTYGMHWVRQAPGKGLEWVAVIWYDGSNKHYADSVKGRFTITRDNSKNTLNLQMNSLRAEDTAVYYCARSPRYDWYLEAFDVWGQGTMVTVSS
chain 2: SYVLTQPPSVSVAPGQTARITCGGNNLGSKSVHWYQQKPGQAPVLVVYDDSDRPSWIPERFSGSNSGNTATLTISRGEAGDEADYYCQVWDSSSDHVVFGGGTKLTVL
B9: unnamed (protein)
chain 1: QMQLVESGGGVVQPGRSLRLSCAASGFTFRTYGMHWVRQAPGKGLEWVAVIWYDGSNKHYADSVKGRFTITRDNSKNTLNLQMNSLRAEDTAVYYCARSPRYDDYLEAFDVWGQGTMVTVSS
chain 2: SYVLTQPPSVSVAPGQTARITCGGNNLGSKSVHWYQQKPGQAPVLVVYDDSDRPSWIPERFSGSNSGNTATLTISRGEAGDEADYYCQVWDSSSDHVVFGGGTKLTVL
B10: unnamed (protein)
chain 1: QMQLVESGGGVVQPGRSLRLSCAASGFTFRTYGMHWVRQAPGKGLEWVAVIWYDGSNKHYADSVKGRFTITRDNSKNTLNLQMNSLRAEDTAVYYCARAPRYDWEYEAFDVWGQGTMVTVSS
chain 2: SYVLTQPPSVSVAPGQTARITCGGNNLGSKSVHWYQQKPGQAPVLVVYDDSDRPSWIPERFSGSNSGNTATLTISRGEAGDEADYYCQVWDSSSDHVVFGGGTKLTVL

The target of this test is TSLP, Q969D9. The experiment in a line: Kd (SPR).
One may read the Kd as a measure of binding affinity in units of concentration. The molecule B1 came in with a dissociation constant Kd of 122 nM.

As to B2, the dissociation constant Kd stood at 241 nM.

Consider B3, for which the equilibrium dissociation constant (Kd) worked out at 72.3 nM.

As for B4, the Kd was 109 nM.

Regarding B5, the Kd was found to be 103 nM.

B6 displayed a Kd of 242 nM.

Molecule B7 had a dissociation constant (Kd) of 86.2 nM.

In turn, B8 had a dissociation constant Kd of 335 nM.

B9 showed an equilibrium dissociation constant (Kd) of 228 nM.

The molecule B10 gave a Kd of 102 nM.
